Source: publication PMC1919509 (Nucleic Acids Research, 2007)

Biological target: Single-stranded DNA binding protein (SSB), over-expressed recombinant (E. coli, UniProt P0AGE0 1-178)
Assay: cross-linking

Chain of Single-stranded DNA binding protein (SSB), over-expressed recombinant (P0AGE0 whole entry): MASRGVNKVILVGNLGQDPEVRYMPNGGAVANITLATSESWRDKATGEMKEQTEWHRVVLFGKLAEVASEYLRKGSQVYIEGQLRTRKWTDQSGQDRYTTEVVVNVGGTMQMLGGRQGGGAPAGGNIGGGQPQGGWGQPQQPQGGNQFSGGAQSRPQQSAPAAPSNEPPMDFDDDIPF

stoichiometry N: 2 ExoIX molecules per SSB tetramer
B1: Exonuclease IX (ExoIX), native recombinant (natural protein, E. coli, UniProt P38506 1-251, looked up)
chain: MAVHLLIVDALNLIRRIHAVQGSPCVETCQHALDQLIMHSQPTHAVAVFDDENRSSGWRHQRLPDYKAGRPPMPEELHDEMPALRAAFEQRGVPCWSTSGNEADDLAATLAVKVTQAGHQATIVSTDKGYCQLLSPTLRIRDYFQKRWLDAPFIDKEFGVQPQQLPDYWGLAGISSSKVPGVAGIGPKSATQLLVEFQSLEGIYENLDAVAEKWRKKLETHKEMAFLCRDIARLQTDLHIDGNLQQLRLVR
